Assay [1] deals with T1, HER2ECDHis (human, UniProt P04626 23-653, biotinylated in the cross-block ELISA (sites not given)).
T1 construct: range 1-653; expressed in HEK-293F; also called soluble HER2; biotinylated HER2ECDHis
Briefly: ELISA; competitor Tras. In general terms: In an ELISA, binding on a coated surface is turned into a signal by an enzyme label.

Assay [2] has as its target T2, human epidermal growth factor receptor 2 (HER2), membrane-bound on cells (human, UniProt P04626 23-1255). Briefly: cell-based or functional assay.
Assay [3] addresses T1, HER2ECDHis. Briefly: ELISA; competitor 106.
Procedure: (§1) Next, the ELISA wells were washed with PBST (PBS supplemented with 0.05% Tween-20 [Sigma-Aldrich, Zwijndrecht, The Netherlands]) and blocked for one hour at room temperature (RT) with PBSTC (PBST supplemented 2% [v/v] chicken serum [Gibco, Paisley, Scotland]). The ELISA wells were then washed with PBST and incubated for one hour at RT with HER2ECDHis serially diluted in PBSTC (0.25-2 μg/mL in 2-fold dilutions). […] The plate was thereafter washed with PBST and incubated for one hour with 0.1 μg/mL Streptavidin-poly-HRP (Sanquin, Amsterdam, The Netherlands) diluted in PBST. After washing, the reaction was visualized through a 15 minutes incubation with 2,2′-azino-bis (3-ethylbenzothiazoline-6-sulfonic acid) (ABTS: one ABTS tablet diluted in 50 mL ABTS buffer (Roche Diagnostics, Almere, The Netherlands)) at RT protected from light. The colorization was stopped by adding an equal volume of oxalic acid (Sigma-Aldrich, Zwijndrecht, The Netherlands). Fluorescence at 405 nm was measured on a microtiter plate reader (Biotek Instruments, Winooski, USA).
(§2) Each HER2 antibody was coated to the ELISA wells at the sub-optimal dose that was determined as described above. After blocking of the ELISA wells, the wells were incubated with the predetermined concentration of 1 μg/mL biotinylated HER2ECDHis in the presence or absence of an excess of a second (competitor) HER2 antibody. The ELISA was then performed as described above. […] Percentage competition was then determined as 100 minus the percentage of inhibition.
The target of assay [4] is T1, HER2ECDHis. As to the kind of experiment: ELISA; competitor F5.
Procedure: as §1, §2
The target of assay [5] is T1, HER2ECDHis. As to the kind of experiment: ELISA; competitor 060.
Procedure: as §1, §2
Assay [6] addresses T1, HER2ECDHis. Briefly: ELISA; competitor 005.
Procedure: as §1, §2
The target in assay [7] is T2, human epidermal growth factor receptor …. As to the kind of experiment: cell-based or functional assay. This is another data set of the same source.
In assay [8] the target is T1, HER2ECDHis. Briefly: ELISA; competitor Pert.
Procedure: as §1, §2
The target of assay [9] is T1, HER2ECDHis. Briefly: ELISA; competitor 059.
Procedure: as §1, §2
Assay [10] has as its target T1, HER2ECDHis. As to the kind of experiment: ELISA; competitor C1.
Procedure: as §1, §2
Assay [11] concerns the target T1, HER2ECDHis. Briefly: ELISA; competitor 111.
Procedure: as §1, §2
For assay [12], the target named is T1, HER2ECDHis. Briefly: ELISA; competitor 006.
Procedure: as §1, §2
Assay [13] deals with T1, HER2ECDHis. Briefly: ELISA; competitor 084.
Procedure: as §1, §2
The target of assay [14] is T1, HER2ECDHis. As to the kind of experiment: ELISA; competitor 127.
Procedure: as §1, §2
The target of assay [15] is T1, HER2ECDHis. As to the kind of experiment: ELISA; competitor 169.
Procedure: as §1, §2
In assay [16] the target is T1, HER2ECDHis. Briefly: ELISA; competitor 091.
Procedure: as §1, §2
For assay [17], the target named is T1, HER2ECDHis. Briefly: ELISA; competitor 025.
Procedure: as §1, §2
Assay [18] deals with T1, HER2ECDHis. Briefly: ELISA; competitor 098.
Procedure: as §1, §2
In assay [19] the target is T1, HER2ECDHis. Briefly: ELISA; competitor tras.
Procedure: as §1, §2
Assay [20] deals with T1, HER2ECDHis. Briefly: ELISA; competitor 050.
Procedure: as §1, §2
Assay [21] deals with T2, human epidermal growth factor receptor …. Briefly: cell-based or functional assay. This is another data set of the same source.
In assay [22] the target is T1, HER2ECDHis. Briefly: ELISA; competitor 159.
Procedure: as §1, §2
The target of assay [23] is T1, HER2ECDHis. As to the kind of experiment: ELISA; competitor 153.
Procedure: as §1, §2
For assay [24], the target named is T1, HER2ECDHis. As to the kind of experiment: ELISA; competitor pert.
Procedure: as §1, §2
Assay [25] addresses T1, HER2ECDHis. Briefly: ELISA; competitor 129.
Procedure: as §1, §2
Assay [26] has as its target T1, HER2ECDHis. As to the kind of experiment: ELISA; competitor 132.
Procedure: as §1, §2

Positions count from the first letter of the chain named.

B1: HuMab 111 (antibody, V domains shown)
VH: QVQLVQSGAEVKKPGSSVKVSCKASGGTFSSYGISWVRQAPGPGLEWMGRIIPILGIANYAQKFQGRVTITADKSTNTAYMELSSLRSEDTAVYYCARDQEYSSNWYYWGQGTLVTVSS
VL: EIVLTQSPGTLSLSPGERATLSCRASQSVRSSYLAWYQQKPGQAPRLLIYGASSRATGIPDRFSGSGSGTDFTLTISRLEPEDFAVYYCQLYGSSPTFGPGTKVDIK
Regarding B1, the “% binding vs no competitor” value came to 110% with HER2ECDHis [1]; 75% in the assay with HER2ECDHis [3]; 119% with HER2ECDHis [4]; 36% in the assay with HER2ECDHis [5]; 51% in the assay with HER2ECDHis [6]; 102% in the assay with HER2ECDHis [8]. The “% binding vs no competitor” value in the assay with HER2ECDHis [9] stood at 65%; with HER2ECDHis [10], 122%; in the assay with HER2ECDHis [11] it was 14%; with HER2ECDHis [12], 10%. In addition, in [2], the “% cells killed, AU565, anti-kappa-ETA'-conjugated” value (shortened to “% cells killed, AU565”) came to 72%. The “EC50 of cell kill, AU565, anti-kappa-ETA'-conjugated” value (“EC50 of cell kill, AU565” for short) in assay [2] came out at 0.0242 µg/mL. In assay [7], the “EC50, fab-CypHer5E internalization, AU565” value was 0.0352 µg/mL. In addition, the “Maximal MFI, fab-CypHer5E internalization, AU565” value (shortened to “Maximal MFI”) in [7] worked out at 81700 MFI.

B2: HuMab 106 (antibody, V domains shown)
VH: EVQLVQSGAEVKKPGESLKISCKGSGYSFTRYWIGWVRQMPGKGLEWMGIIYPGDSDTRYSPSFQGQVTISADKSISTAYLQWSSLKASDTAMYYCARLTGDRGFDYYSGMDVWGQGTTVTVSS
VL: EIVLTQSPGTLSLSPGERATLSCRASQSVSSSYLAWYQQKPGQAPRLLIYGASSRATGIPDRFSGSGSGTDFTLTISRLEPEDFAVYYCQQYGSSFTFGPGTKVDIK
As for B2, the “% binding vs no competitor” value worked out at 323% with HER2ECDHis [1]; 26% with HER2ECDHis [3]; 495% with HER2ECDHis [4]; 23% with HER2ECDHis [5]; 25% with HER2ECDHis [6]; 275% in the assay with HER2ECDHis [8]. Besides, the “% binding vs no competitor” value in the assay with HER2ECDHis [9] was 25%; with HER2ECDHis [10], 471%; with HER2ECDHis [11], 21%; with HER2ECDHis [12], 25%. Further, the “% cells killed, AU565” value in [2] stood at 59.1%. Besides, the “EC50 of cell kill, AU565” value in assay [2] was 0.108 µg/mL. Besides, the “EC50, fab-CypHer5E internalization, AU565” value in [7] is 0.0686 µg/mL. Besides, the “Maximal MFI” value in assay [7] amounted to 57400 MFI.

B3: HuMab 059 (antibody, V domains shown)
VH: QVQLVQSGAEVKKPGASVRVPCKASGYTFTRYGISWVRQAPGQGLEWMGWISAYNGKTYYAQKLQGRVTMTTDTSTSTAYMELRSLRSDDTAVYYCARSPLLWFEELYFDYWGQGTLVTVSS
VL: EIVLTQSPGTLSLSPGERATLSCRASQSVSSTYLAWYQQKPGQAPRLLIYGASSRATGIPDRFSGSGSGTDFTLTISRLEPEDFAVYYCQQYGTSLFTFGPGTKVDIK
notes: also called PC1014-059
Regarding B3, the “% binding vs no competitor” value amounted to 117% with HER2ECDHis [1]; 23% with HER2ECDHis [3]; 128% in the assay with HER2ECDHis [4]; 11% with HER2ECDHis [5]; 13% with HER2ECDHis [6]; 107% with HER2ECDHis [8]. Also, the “% binding vs no competitor” value with HER2ECDHis [9] was found to be 12%; with HER2ECDHis [10], 78%; with HER2ECDHis [11], 12%; in the assay with HER2ECDHis [12], 11%. In addition, the “% cells killed, AU565” value in assay [2] is 67%. Besides, the “EC50 of cell kill, AU565” value in assay [2] stood at 0.0677 µg/mL. The “EC50, fab-CypHer5E internalization, AU565” value in assay [7] amounted to 0.0148 µg/mL. Further, the “Maximal MFI” value in [7] was 77100 MFI.

B4: HuMab 153 (antibody, V domains shown)
VH: QVQLVESGGGVVQPGRSLRLSCAASGFTFSDYVIHWVRQAPGKGLEWVTVISYDGSNKYYADSVKGRFTISRDNSKNTLYLQMNSLSAEDTAMYYCARGGITGTTGVFDYWGQGTLVTVSS
VL: DIQMTQSPSSLSASVGDRVTITCRASQGISSWLAWYQQKPEKAPKSLIYDASSLQSGVPSRFSGSGYGTDFSLTISSLQPEDFAIYYCQQYKSYPITFGQGTRLEIK
Regarding B4, the “% binding vs no competitor” value in the assay with HER2ECDHis [13] is 107%; with HER2ECDHis [14] it was 27%; in the assay with HER2ECDHis [15] it was 111%; in the assay with HER2ECDHis [16], 102%; in the assay with HER2ECDHis [17] it was 97%; with HER2ECDHis [4], 96%. For the same molecule, the “% binding vs no competitor” value with HER2ECDHis [18] came out at 115%; with HER2ECDHis [19], 134%; in the assay with HER2ECDHis [20], 103%; in the assay with HER2ECDHis [10] it was 257%; with HER2ECDHis [22] it was 23%; with HER2ECDHis [23] it was 28%. In addition, the “% binding vs no competitor” value was found to be 121% with HER2ECDHis [24], 106% with HER2ECDHis [25] and 33% with HER2ECDHis [26]. The “% cells killed, AU565” value in assay [2] worked out at 60.3%. In addition, the “EC50 of cell kill, AU565” value in assay [2] was 0.0323 µg/mL. Also, the “% cells killed, A431, anti-kappa-ETA'-conjugated” value in [21] was 82.4%. Also, the “EC50 of cell kill, A431, anti-kappa-ETA'-conjugated” value in [21] is roughly 0.0101 µg/mL. Moreover, the “EC50, fab-CypHer5E internalization, AU565” value in [7] was roughly 0.0149 µg/mL. Besides, the “Maximal MFI” value in assay [7] was 87500 MFI.

B5: HuMab 098 (antibody, V domains shown)
VH: EVQLLESGGGLVQPGGSLRLSCAASGFTFSNYGMSWVRQAPGKGLEWVSAISGSAYSTYYADSVKGRFTISRDNSKNTLWLQMNSLRAEDTAVYYCAKAHYHGSGSYYTLFDYWGQGTLVTVSS
VL: B4 VL with D50A, Y67S, S72T, I85T, K92N, I96Y, R103K
notes: also called TH1014-098; PC1014-098
As for B5, the “% binding vs no competitor” value with HER2ECDHis [13] worked out at 103%; in the assay with HER2ECDHis [14] it was 21%; in the assay with HER2ECDHis [15], 102%; with HER2ECDHis [16], 104%; with HER2ECDHis [17] it was 108%; with HER2ECDHis [4] it was 96%. The “% binding vs no competitor” value worked out at 17% with HER2ECDHis [18]; 107% in the assay with HER2ECDHis [19]; 100% in the assay with HER2ECDHis [20]; 125% with HER2ECDHis [10]; 9% in the assay with HER2ECDHis [22]; 110% with HER2ECDHis [23]. The entries for the “% binding vs no competitor” value with HER2ECDHis [24], with HER2ECDHis [25] and with HER2ECDHis [26] were 104%, 107% and 142%, respectively. In addition, the “% cells killed, AU565” value in assay [2] was determined as 58.7%. Moreover, the “EC50 of cell kill, AU565” value in assay [2] worked out at 0.0121 µg/mL. Also, in [21], the “% cells killed, A431, anti-kappa-ETA'-conjugated” value stood at 87.2%. The “EC50 of cell kill, A431, anti-kappa-ETA'-conjugated” value in [21] came out at 0.00165 µg/mL. The “EC50, fab-CypHer5E internalization, AU565” value in [7] is 0.0138 µg/mL. Further, the “Maximal MFI” value in assay [7] stood at 135000 MFI.
